Experiments:
Type in all cases: cell-based, Saccharomyces cerevisiae
BOI2 = assay: DHFR-PCA on solid medium, bait BOI2 (Fig. 1B); details: bait BOI2, label = prey; 3-8 replicates
Excerpt: (§1) Supplement 41467_2021_21873_MOESM8_ESM.xlsx, sheet "Fig1B" | column: medsize; medrep; Ratio; Score

BEM1-1 = assay: DHFR-PCA on solid medium, bait BEM1-1 (Fig. 1B); details: bait BEM1-1, label = prey; for medrep (log2 median colony size normalized to plate background, PCA score): 2-8 replicates; for Ratio (SH3-deleted/WT medrep): only significant differences showed, PPIs completely lost have a ratio of 0.1 and the gained PPIs 2.5
Excerpt: as §1

BBC1 = assay: DHFR-PCA on solid medium, bait BBC1 (Fig. 1B); details: bait BBC1, label = prey; 2-4 replicates
Excerpt: as §1

BEM1-2 = assay: DHFR-PCA on solid medium, bait BEM1-2 (Fig. 1B); details: bait BEM1-2, label = prey; for medrep (log2 median colony size normalized to plate background, PCA score): 2-8 replicates; for Ratio (SH3-deleted/WT medrep): only significant differences showed, PPIs completely lost have a ratio of 0.1 and the gained PPIs 2.5
Excerpt: as §1

BOI1 = assay: DHFR-PCA on solid medium, bait BOI1 (Fig. 1B); details: bait BOI1, label = prey; for medrep (log2 median colony size normalized to plate background, PCA score): 3-8 replicates; for Ratio (SH3-deleted/WT medrep): only significant differences showed, PPIs completely lost have a ratio of 0.1 and the gained PPIs 2.5
Excerpt: as §1

ABP1 = assay: DHFR-PCA on solid medium, bait ABP1 (Fig. 1B); details: bait ABP1, label = prey; for medrep (log2 median colony size normalized to plate background, PCA score): 2-4 replicates
Excerpt: as §1

Molecule | medrep (log2 median colony size normalized to plate background, PCA score) (BOI2) | medrep (log2 median colony size normalized to plate background, PCA score) (BEM1-1) | Ratio (SH3-deleted/WT medrep) (BEM1-1) | medrep (log2 median colony size normalized to plate background, PCA score) (BBC1) | medrep (log2 median colony size normalized to plate background, PCA score) (BEM1-2) | Ratio (SH3-deleted/WT medrep) (BEM1-2) | medrep (log2 median colony size normalized to plate background, PCA score) (BOI1) | Ratio (SH3-deleted/WT medrep) (BOI1) | medrep (log2 median colony size normalized to plate background, PCA score) (ABP1) | Ratio (SH3-deleted/WT medrep) (ABP1; only significant differences showed, PPIs completely lost have a ratio of 0.1 and the gained PPIs 2.5)
YKL051W (protein, UniProt P35735 1-353, looked up) Protein SFK1: MIQFKSPGNWLFIVPWIAFIPWYGMLIAMLICWASQGHPIYWFMHSEQFPVYISDIGATNLRPLFISCAGWQGLGYVITVALEFFQRSGYLPFQLKKKDPSISDSTSYAEKLHSGKYLMPPYYTKDERNLIFAAFVLGSIGELALLFSSIFSTALYHRVHIAMVSVFVVFMFLSTCCLIAEYFLMGRHYASVHPLASPHFNPQSSEKSFNQDYNTVDELPWYKWKGHVWNKFTISATLKVIWLTLAVVWAICFGAINDRSKSACFEWLLAFWFGIIFMILSADFYLGGRYRQSRYFNHVESFSGYYKYDKALGLYHSEDVLPSDDNAGVIATETASSNIYNNSSSNESIQVVV | 3.168 | 3.661 | 0.1 | 4.283 | 1.764 | 0.482 | 2.409 | 1.668 |  | 
YBR200W (protein, UniProt P29366 1-551, looked up) Bud emergence protein 1: MLKNFKLSKRDSNGSKGRITSADISTPSHDNGSVIKHIKTVPVRYLSSSSTPVKSQRDSSPKNRHNSKDITSPEKVIKAKYSYQAQTSKELSFMEGEFFYVSGDEKDWYKASNPSTGKEGVVPKTYFEVFDRTKPSSVNGSNSSSRKVTNDSLNMGSLYAIVLYDFKAEKADELTTYVGENLFICAHHNCEWFIAKPIGRLGGPGLVPVGFVSIIDIATGYATGNDVIEDIKSVNLPTVQEWKSNIARYKASNISLGSVEQQQQQSITKPQNKSAKLVDGELLVKASVESFGLEDEKYWFLVCCELSNGKTRQLKRYYQDFYDLQVQLLDAFPAEAGKLRDAGGQWSKRIMPYIPGPVPYVTNSITKKRKEDLNIYVADLVNLPDYISRSEMVHSLFVVLNNGFDREFERDENQNNIKTLQENDTATFATASQTSNFASTNQDNTLTGEDLKLNKKLSDLSLSGSKQAPAQSTSGLKTTKIKFYYKDDIFALMLKGDTTYKELRSKIAPRIDTDNFKLQTKLFDGSGEEIKTDSQVSNIIQAKLKISVHDI | 4.509 | 4.2138 |  |  | 1.887 | 0.4478 | 3.166 |  | 1.73 | 2.5
YDR379W (protein, UniProt Q06407 1-1009, looked up) Rho-type GTPase-activating …: MSADPINDQSSLCVRCNKSIASSQVYELESKKWHDQCFTCYKCDKKLNADSDFLVLDIGTLICYDCSDKCTNCGDKIDDTAIILPSSNEAYCSNCFRCCRCSNRIKNLKYAKTKRGLCCMDCHEKLLRKKQLLLENQTKNSSKEDFPIKLPERSVKRPLSPTRINGKSDVSTNNTAISKNLVSSNEDQQLTPQVLVSQERDESSLNDNNDNDNSKDREETSSHARTVSIDDILNSTLEHDSNSIEEQSLVDNEDYINKMGEDVTYRLLKPQRANRDSIVVKDPRIPNSNSNANRFFSIYDKEETDKDDTDNKENEIIVNTPRNSTDKITSPLNSPMAVQMNEEVEPPHGLALTLSEATKENNKSSQGIQTSTSKSMNHVSPITRTDTVEMKTSTSSSTLRLSDNGSFSRPQTADNLLPHKKVAPSPNKKLSRSFSLKSKNFVHNLKSKTSEMLDPKHPHHSTSIQESDTHSGWGVSSTHTNIRKSKAKKNPVSRGQSDSTIYNTLPQHGNFTVPEFNHKKAQSSLGSISKKQNSNDTATNRRINGSFTSSSSGHHIAMFRTPPLESGPLFKRPSLSSESAHHRSSSLQTSRSTNALLEDDSTKVDATDESATSLEKDFYFTELTLRKLKLDVRELEGTKKKLLQDVENLRLAKERLLNDVDNLTREKDKQSASSRESLEQKENIATSITVKSPSSNSDRKGSISNASPKPRFWKIFSSAKDHQVGDLESQQRSPNSSSGGTTNIAQKEISSPKLIRVHDELPSPGKVPLSPSPKRLDYTPDGSHLYGSSLQARCAYEKSTVPIIIRCCIDRIEKDDIGLNMEGLYRKSGSQTLVEEIENEFAQNNSLHSDTLSPKLNALLNQDIHAVASVLKRYLRKLPDPVLSFSIYDALIDLVRNNQLIERLPLNNDKFLDSPQKVTIYEMVLKSLLEIFKILPVEHQEVLKVLAAHIGKVRRCSERNLMNLHNLSLVFAPSLIHDFDGEKDIVDMKERNYIVEFILGNYRDIFKQA | 2.382 | 2.957 |  |  | 2.957 | 0.1 | 1.407 | 2.5 |  | 
YBL085W (protein, UniProt P38041 1-980, looked up) BEM1-interacting protein 1: MSLEGNTLGKGAKSFPLYIAVNQYSKRMEDELNMKPGDKIKVITDDGEYNDGWYYGRNLRTKEEGLYPAVFTKRIAIEKPENLHKSPTQESGNSGVKYGNLNDSASNIGKVSSHQQENRYTSLKSTMSDIDKALEELRSGSVEQEVSKSPTRVPEVSTPQLQDEQTLIQEKTRNEENTTHDSLFSSTADLNLSSESLKNISKSNISTKSLEPSSESVRQLDLKMAKSWSPEEVTDYFSLVGFDQSTCNKFKEHQVSGKILLELELEHLKELEINSFGIRFQIFKEIRNIKSAIDSSSNKLDADYSTFAFENQAAQLMPAATVNRDEIQQQISSKCNKLSSESSDRKSSSVTTELQRPSSVVVNPNFKLHDPAEQILDMTEVPNLFADKDIFESPGRAPKPPSYPSPVQPPQSPSFNNRYTNNNARFPPQTTYPPKNKNPTVYSNGLIPNSSTSSDNSTGKFKFPAMNGHDSNSRKTTLTSATIPSINTVNTDESLPAISNISSNATSHHPNRNSVVYNNHKRTESGSSFVDLFNRISMLSPVKSSFDEEETKQPSKASRAVFDSARRKSSYGHSRDASLSEMKKHRRNSSILSFFSSKSQSNPTSPTKQTFTIDPAKMTSHSRSQSNSYSHARSQSYSHSRKHSLVTSPLKTSLSPINSKSNIALAHSETPTSSNNKEAVSQPSEGKHKHKHKHKSKHKHKNSSSKDGSSEEKSKKKLFSSTKESFVGSKEFKRSPSELTQKSTKSILPRSNAKKQQTSAFTEGIRSITAKESMQTADCSGWMSKKGTGAMGTWKQRFFTLHGTRLSYFTNTNDEKERGLIDITAHRVLPASDDDRLISLYAASLGKGKYCFKLVPPQPGSKKGLTFTEPRVHYFAVENKSEMKAWLSAIIKATIDIDTSVPVISSYATPTIPLSKAQTLLEEARLQTQLRDAEEEEGRDQFGWDDTQNKRNSNYPIEQDQFETSDYLESSAFEYPGGRL | 3.465 | 1.5623 | 0.5621 |  | 2.78 | 0.1 | 1.7279 |  |  | 
YCR002C (protein, UniProt P25342 1-322, looked up) Cell division control protein …: MDPLSSVQPASYVGFDTITNQIEHRLLKKGFQFNIMVVGQSGLGKSTLINTLFASHLIDSATGDDISALPVTKTTEMKISTHTLVEDRVRLNINVIDTPGFGDFIDNSKAWEPIVKYIKEQHSQYLRKELTAQRERFITDTRVHAILYFLQPNGKELSRLDVEALKRLTEIANVIPVIGKSDTLTLDERTEFRELIQNEFEKYNFKIYPYDSEELTDEELELNRSVRSIIPFAVVGSENEIEINGETFRGRKTRWSAINVEDINQCDFVYLREFLIRTHLQDLIETTSYIHYEGFRARQLIALKENANSRSSAHMSSNAIQR | 1.509 | 3.007 |  |  | 3.007 | 0.1 | 1.419 | 0.1 | 2.496 | 

Source: paper PMC7954794, “Protein context shapes the specificity of SH3 domain-mediated interactions in vivo” (Nature Communications, 2021)
